Results as given in paper PMC5537299, “Spatial structure of TLR4 transmembrane domain in bicelles provides the insight into the receptor activation mechanism” (Scientific Reports, 2017).
Values joined by “and” are separate entries in the source; they are usually repeats but may differ in a detail not shown here. Equal entries are not always repeated. Each block holds one molecule with its values, some of them ahead of it.

Assays:
[1] = target: TLR4-TMICL (transmembrane domain and whole intracellular linker region of human TLR4, residues 624-670) (human); test: NMR titration; 1H,15N-TROSY spectra at various lipid(detergent)-to-protein ratios (LPR) in DPC micelles; populations of the states from cross-peak intensities; 45 °C; 20 mM phosphate buffer pH 6.0-6.5; monomer, dimer and higher oligomer
[2] = target: the molecule itself; test: as above
[3] = target: His657 (UniProt position 657, …); test: NMR; settings: 45 °C (Methods: all NMR experiments), supplementary figure captions for the same samples state 40 °C, not stated (20 mM phosphate, no added salt mentioned), Monomeric, helical, membrane-mimetic-embedded TLR4-TMICL in anionic bicelles

- stoichiometry N [1]: 2 and 3
Molecule: TLR4-TMICL (transmembrane domain and whole intracellular linker region of human TLR4, residues 624-670) (domain or fragment)

B1: TLR4-TM (transmembrane domain of human TLR4 with the truncated ICL region, residues 624-657) (domain or fragment)
chain: MNITSQMNKTIIGVSVLSVLVVSVVAVLVYKFYFH
notes: not part of the stated range 624-657; human TLR4, predicted (UniProt) transmembrane and several juxtamembrane residues 624-657; 35 residues as printed; uniformly 13C/15N-labelled for NMR; cloned into pET22b by NdeI and HindIII; also called TLR-TM; source: continuous exchange cell-free expression (S30 extract of E. coli Rosetta(DE3)pLysS), as a precipitate; purified by size-exclusion …
- stoichiometry N [2]: 2 and 3

Molecule: MNITSQMNKTIIGVSVLSVLVVSVVAVLVYKFYFHLLMLAGCIKYGRG
- pKa [3]: 6.16 ± 0.02
